In patent publication US20170298425:

Key:
Assay in all cases: cell_activity
[1] = target: TcI (cI857, A67T) (bacteriophage lambda) (UniProt P03034); conditions: GFP derepression fold change 34.2 to 40 C, E. coli; SEM 404; text gives >1432
[2] = target: TcI38 (bacteriophage lambda) (UniProt P03034); conditions: GFP derepression fold change 32.4 to 40 C, E. coli; SEM 160
[3] = target: TcI42 (bacteriophage lambda) (UniProt P03034); conditions: GFP derepression fold change 32.4 to 45.7 C, E. coli; SEM 444
[4] = tested on: TlpA (in cell) (Salmonella enterica); conditions: GFP derepression fold change 31.4 to 44.6 C, E. coli; SEM 45
[5] = tested on: TlpA39 (Salmonella enterica); conditions: GFP derepression fold change 31.4 to 44.6 C, E. coli; SEM 434
[6] = tested on: TlpA36 (Salmonella enterica); conditions: GFP derepression fold change 31.4 to 44.6 C, E. coli; SEM 63

## lambda tandem pR/pL operator/promoter
[1]
  activity: 1430 fold
[2]
  activity: 1030 fold
[3]
  activity: 1690 fold

## pTlpA operator/promoter, 52 bp
[4]
  activity: 355 fold
[5]
  activity: 1520 fold
[6]
  activity: 370 fold
